Assay results as given in publication PMC2212392.
Read-outs that look alike come from different tables or passages of the source.

What was measured:
Assay in all cases: SPR
[1] = molecular target: soluble mCD2 comprising the extracellular region of mCD2 (mouse) (UniProt P08920)
[2] = molecular target: soluble mCD2 comprising the extracellular region of mCD2 (mouse) (UniProt P08920); remark: listed apart in the source
[3] = molecular target: soluble mCD2 comprising the extracellular region of mCD2 (mouse) (UniProt P08920); remark: listed apart in the source

Chain of UniProt P08920 (P08920 23-203): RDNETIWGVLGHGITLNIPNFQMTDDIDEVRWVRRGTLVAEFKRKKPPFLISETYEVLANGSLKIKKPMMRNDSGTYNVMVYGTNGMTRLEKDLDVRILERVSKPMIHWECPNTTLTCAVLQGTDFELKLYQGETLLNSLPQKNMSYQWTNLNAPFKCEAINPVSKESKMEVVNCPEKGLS

## soluble mCD48 (purified monomeric mouse CD48 with a COOH-terminal His-tag) (from UniProt P18181 23-217) (domain or fragment)
[1]
  Kd: 49 µM
[2]
  koff: 22 s⁻¹
[3]
  Kd: 90 µM
  koff: > 20 s⁻¹
